From patent publication US12168677B2, “Proteins for the treatment of epithelial barrier function disorders” (Genevive, Inc., priority 2017, dated 2024) come the findings set out here.

For test [1], the system named is LPS binding protein (LBP). In words: DSS model: LPS binding protein in serum (ELISA). It counts as in vivo, C57BL/6 mice. The conditions noted are these: 50 nmoles/kg i.p. b.i.d.; 2.5% DSS 6 days. As to the method: Eight-week old C57BL/6 mice were housed 5 animals were cage and given food and water ad libitum for 7 days. Following the 7-day acclimation period, treatments were initiated concurrently with addition of 2.5% DSS to the drinking water. […] The mice were treated with 2.5% dextran sodium sulfate (DSS) in their drinking water for 6 days. Treatments were continued with SG-15 or […]-GLP2 twice a day (b.i.d.) in the morning and evening (every 8 and 16 hr) with i.p. injections at 50 nmoles/kg. Fresh 2.5% DSS drinking water was prepared every 2 days. SG-15 was also assessed for its effects on the levels of LPS binding protein (LBP) in the blood of the DSS animal with and without SG-15 administration. LPS binding protein (LBP), which has been linked to clinical disease activity in subjects with inflammatory bowel disease, was also measured by ELISA in the serum of mice tested in the DSS model described in Example 1E. […] Results are shown in FIG. 5, and are presented as mean±SEM. The graph in FIG. 5 represents data pooled from the 2 individual experiments (n=20).
For orientation: An ELISA detects its analyte on a solid surface through an enzyme-linked reagent.

The next test deals with IL-23. Briefly: IL-23 production by monocytes in co-culture TEER assay (Luminex). It counts as cell-based, human. The conditions noted are these: for IL-23 production normalized to HK E. coli only (set to 1.0): pre-incubated 6 hours prior to HK E. coli, basolateral supernatant. As to the method:
Production of the cytokines TNF-α, IL-23, and IL-10 by monocytes was measured in the tissue culture supernatant from the basolateral chamber of the co-culture TEER assay performed in Example 1B. Following TEER readings, the supernatants were centrifuged at 10,000 g for 5 minutes at 4° C. to remove cell debris. Luminex analysis was performed according to the manufacturer's instructions (Magpix instrument and xPonent software version 4.2; Luminex Corporation (Austin, TX)). Luminex analysis was performed to determine the […] concentration of TNF-α and IL-23 produced by monocytes. Luminex analysis utilizes a bead-based system for quantification of multiple cytokines from a single sample. Like an ELISA, Luminex beads are coated with a capture antibody, and incubation with samples allows the target to bind to the capture antibody. Beads are washed and incubated with a fluorescently labeled detection antibody for quantification of bound target. Cytometric analysis is used to differentiate bead populations, which are loaded with differential fluorescent dyes, and to quantify cytokine levels by measuring detection antibody signal. TNF-α, IL-23, and IL-10 production in untreated cells and cells pre-incubated with SG-15 for 6 hours prior to HK E. coli treatment was normalized to pg/ml concentrations elicited by HK E. coli only, which was set to 1.0. […] The graphs in FIGS. 2A, 2B and 2C each represent data pooled from an individual experiment (n=3).

The next test deals with DSS treated mice. In words: DSS model of inflammatory bowel disease: 4KDa-FITC dextran translocation across the epithelial barrier. The conditions noted are these: 50 nmoles/kg i.p. b.i.d., 2.5% DSS 6 days; for 4KDa-FITC dextran in serum compared to DSS mice treated with vehicle: day 6. It counts as in vivo, C57BL/6 mice. As to the method:
Specifically, the mice in Example 1E were treated with dextran sodium sulfate (DSS), a chemical known to induce intestinal epithelial damage and thereby reduce intestinal barrier integrity and function. DSS mice are well-accepted models of colitis. In Example 1E, mice were treated with SG-15 protein approximately concurrent with (6 hours prior to) administration of DSS. The mice were then assessed for effects of SG-15 on clinically relevant markers of improved health. Eight-week old C57BL/6 mice were housed 5 animals were cage and given food and water ad libitum for 7 days. Following the 7-day acclimation period, treatments were initiated concurrently with addition of 2.5% DSS to the drinking water. […] The mice were treated with 2.5% dextran sodium sulfate (DSS) in their drinking water for 6 days. Treatments were continued with SG-15 or […]-GLP2 twice a day (b.i.d.) in the morning and evening (every 8 and 16 hr) with i.p. injections at 50 nmoles/kg. Fresh 2.5% DSS drinking water was prepared every 2 days. On day six, mice were fasted for four hours and then orally gavaged with 600 mg/kg 4 KDa dextran labeled with fluorescein isothiocyanate (FITC) [4KDa-FITC]. One hour after the 4KDa-FITC gavage mice were euthanized, blood was collected and FITC signal was measured in serum. […] Results are shown in FIG. 4, and are presented as mean±SEM. The graph in FIG. 4 represents data pooled from 2 individual experiments (n=20).

B1: SG-15: 400 amino acid protein (SEQ ID NO:1) encoded by the genome of Eubacterium eligens (protein, listed as Eubacterium eligens)
chain: EYTEIRTASELVEAAKSASGNYKLMTDIDMTGVEWTPWDFSGTFDGNGHSILNLSVKTVSKKTMKTYDGNRKEYKTYGAGFFGVLTGAKVTGLDIYGARIEITTTEPCFAAPIAGLADDSDISDCIIKDTYVSLTDSAKMWGTGGIAGFGSGNLDNITTDVTLVCVDTDAAVRDEQFMGGAYAAGFLNIRNCSITIDGYDSDHGYVHDGGLVGMYMVYPLELSKTYQGEVLNNKVKGMITFFEDNTDRRAYCQANMGEVMNWTYAYSGFTSDFKRNETYDYSVTLLPEMCSNPSYTDVVTEATASDFGYTTHTCSTCGYTYSDTYTIHEHKVDSYSVVKEAASTDKKDGIEAGTCSLCNQTVYREYAANVVTDDNTQATDNKASGTAVKKGMKESTAVFA
On to B1, for which, in test [1], the “LBP in serum compared to DSS mice treated with vehicle” value is recorded as “significant reduction in LBP”. Besides, the “IL-23 production compared with control cells treated with media only” value in the test with IL-23 (cells treated with SG-15 and HK E. coli) was “no significant difference”. Moreover, the “IL-23 production normalized to HK E. coli only (set to 1.0)” value (shortened to “IL-23 production normalized”) with IL-23 was 0.57. Further, the “4KDa-FITC dextran in serum compared to DSS mice treated with vehicle” value in the test on DSS treated mice is listed as “significant reduction in 4KDa-FITC dextran”.

B2: SG-17: 327 amino acid protein (SEQ ID NO:13) encoded by the genome of Eubacterium eligens (protein, listed as Eubacterium eligens)
chain: CNSKIDVKYDYNVEDYVQLGQYENISVQVDKTSIENELIESKIKQDVEDNTTYTEVDRGAIASDQILVTYTATSSGASLSGLTNTDGKTMILGTDTLGLELDELDQALYGMTPGQTKILIVDIPEDYSSDLYKGTRVVFELTMQTVAQANVPMITNAYVKEAFGYDTVEEYRQSIKESLETDINSKVENKIQEDVLSSLQDTFKISSYPDSLMEETRSRLETSIGFYADFSNLSKDEYCQKQYGLSFDDFVKKSVVQQLIMEAIVKDRNMTMREYDYKGSLDDFAADNGYSNADTFVEKFGKDKIVKAMLVQKAQDYVIEHANISYK
Turning to B2, in test [1], the “Impact on LBP concentration compared to control peptide Gly2-GLP2” value is on record as “greater impact on LBP concentration” and the “LBP in serum compared to DSS mice treated with vehicle” value is given as “significant reduction in LBP”. For the same molecule, the “IL-23 production normalized” value in the test with IL-23 was 1.10. In the test with DSS treated mice, the “4KDa-FITC dextran in serum compared to DSS mice treated with vehicle” value is on record as “not altered”.

B3: SG-18: 267 amino acid protein (SEQ ID NO:19) encoded by the genome of Clostridium bartlettii sp. nov. (protein, listed as Clostridium bartlettii)
chain: EVDSSKEQATSKDEKQVVVATSVAITEILDRLGVEVSGVPQTSYELPESAKGATEIGSPMNPDMEIIKSLNPTDVICVDTLGSDFEKQFEENNINADFYNLSNVDGLKETIAALGEKFNKQDKANEILDEIKEVENKVNSNKKSDDKILVLFGAPGSVMVATDKSYIGNLVELAGGNNIFSNATSSFTQINLEEIIKLNPDKILVMTHAVPEAAKKSVEEELSKDLWKNVNAVKNNDITYLENGYFGMSANLQIVEAVEKLGDILYE
B3: in the test on IL-23, the “IL-23 production normalized” value was 1.10. Besides, in the test on DSS treated mice, the “4KDa-FITC dextran translocation compared to positive control Gly2-GLP2” value is on record as “even lower than the positive control” and the “4KDa-FITC dextran in serum compared to DSS mice treated with vehicle” value was “significant reduction in 4KDa-FITC dextran”.

B4: SG-16: 119 amino acid protein (SEQ ID NO:9) encoded by the genome of Eubacterium eligens (protein, listed as Eubacterium eligens)
chain: MTGCSGSKEPDNKTSVDYTVVENADLPEELKKLIESKKDKVMRLTYTTKDYTYVVAGYGTRETSGYSIKVNDVYTGDNALYIDLNLIGPAAGEAVNEVETYPVIVLKMERREESVVFKM
Consider B4, for which the “LBP in serum compared to DSS mice treated with vehicle” value in test [1] was “No change in LBP”. Also, in the test with IL-23, the “IL-23 production normalized” value came to 1.06. The “4KDa-FITC dextran in serum compared to DSS mice treated with vehicle” value with DSS treated mice is “significant reduction in 4KDa-FITC dextran”.
